Results on 2 molecules are retold here after EP4711453A1, “PHENYLALANINE LYASE MUTANT, AND CONJUGATE THEREOF OR PHARMACEUTICALLY ACCEPTABLE SALT THEREOF” (Peg-Bio Biopharm Co., Ltd. (Chongqing), priority 2023, dated 2024).

Data set [1] is described as follows: Specific enzyme activity of phenylalanine lyase (trans-cinnamic acid formation, absorbance at 290 nm). The class given is biochemical. To be noted: polyethylene glycol conjugates; method as for the proteins. Here is the method:
Phenylalanine lyase specifically catalyzes the conversion of phenylalanine into trans-cinnamic acid with the release of ammonia. […] Enzyme activity is defined as the amount of enzyme required to produce 1 µmol of trans-cinnamic acid per minute in buffer (100 mmol/L Tris-HCl, pH 8.5) at room temperature (25°C) as one unit of enzyme activity.
The specific enzyme activity of phenylalanine lyase and its mutants (i.e., PAL, PAL2, PAL3, and PAL4 proteins) prepared in Example 1 was evaluated by taking an appropriate amount of test sample and diluting it to 0.4 mg/ml using assay buffer (100 mmol/L Tris-HCl, pH 8.0). 2.9 ml of substrate solution (100 mmol/L Tris-HCl, 45 mmol/L Phe, pH 8.0) was placed in a cuvette, followed by addition of 0.1 ml of diluted test solution and immediate mixing. The changes in absorbance per minute were recorded at a wavelength of 290 nm, and the specific enzyme activity was calculated according to the formula. Enzyme activity (U/mg) = (AS−AO)VN × 10^6 /εLTV1 [formula]
Where AS and AO represent the absorbance of trans-cinnamic acid at the […] of the reaction, respectively; V is the total volume (L) of the reaction system; L is the optical path length of the cuvette (cm); ε is the molar extinction coefficient of trans-cinnamic acid (10238.1 L/(mol·cm)); T is the reaction time (min); N is the dilution factor of the test sample; V1 is the volume of test sample (ml).
The enzyme activity retention rate was calculated by comparing the specific enzyme activity of phenylalanine lyase mutants with the specific enzyme activity of the phenylalanine lyase. Table 2: Specific enzyme activity of phenylalanine lyase mutants
The specific enzyme activity of the polyethylene glycol conjugates of phenylalanine lyase and its mutants prepared in Step 1 of Example 2 was determined according to the method described in Step 1 of this example. The enzyme activity retention rate was calculated by comparing the specific enzyme activity of each conjugate with its specific enzyme activity prior to PEG modification (e.g., the enzyme activity retention rate of PL5-1 = specific enzyme activity of PL5-1 / specific enzyme activity of PAL protein). Table 3: Specific enzyme activity of PEGylated phenylalanine lyase mutants

Data set [2] concerns anti-PEG-IgG. On the set-up: species or system rats. The note with it: rat, in vivo; for anti-PEG-IgG, Positive rate: sc, 0.75 mg/kg. How it is done: (§1) Polyethylene glycol conjugates of phenylalanine lyase or its mutant with different structures and modifier molecular weights, namely PL20, PL24, and PL54, were prepared according to the method described in Example 2. The phenylalanine lyase in PL20 has the amino acid sequence as set forth in SEQ ID NO: 1, and the polyethylene glycol has a molecular weight of 20K. The phenylalanine lyase in PL24 has the amino acid sequence as set forth in SEQ ID NO: 6, and the polyethylene glycol has a molecular weight of 2K. The phenylalanine lyase in PL54 has the amino acid sequence as set forth in SEQ ID NO: 6, and the polyethylene glycol has a molecular weight of 5K.
(§2) To evaluate the immunogenicity of PL20, PL24, and PL54 in animals, normal rats were selected and divided into 3 groups, with 6 rats per group (3 males and 3 females). Subcutaneous administration was performed at a dose of 0.75 mg/kg with PL54 (average degree of modification 13.6, 1.27 U/mg), PL24 (average degree of modification 13.3, 0.96 U/mg), and PL20 (average degree of modification 7.6, 1.14 U/mg) for the three groups, respectively. Administration was repeated 7 times, once weekly. Blood samples were collected 7 days after each administration. Serum anti-PEG-IgG and anti-PAL4 protein antibodies were detected by ELISA (refer to Example 5 for details). In the table, "1-7" indicated 7 days after the first administration, and "7-7" indicated 7 days after the seventh administration. x represented the average OD value of antibody detection by ELISA, and the positive rate represented the ratio of the number of antibody-positive animals to the total number of animals in the group. Table 6: Antibody titers in rats after multiple administrations of polyethylene glycol conjugates with different molecular weights

Data set [3] deals with anti-PAL-IgG. Nature of the data set: Immunogenicity of conjugates with different PEG molecular weights in rats: anti-PAL-IgG (ELISA). The class given is in vivo. The note with it: 0.75 mg/kg s.c. once weekly. How it is done: as §1, §2
On the technique in general: An ELISA detects its analyte on a solid surface through an enzyme-linked reagent.

Where [4] appears, read: 1-7 (7 days after the first administration).
Setting [5] is: 1-7, antibody-positive animals / animals in the group.
[6] abbreviates: 7-7 (7 days after the seventh administration).
[7] abbreviates: 7-7, antibody-positive animals / animals in the group.

Consider “PL20: polyethylene glycol conjugate of phenylalanine lyase SEQ ID NO: 1, polyethylene glycol molecular weight 20K, average degree of modification 7.6 [reference compound]”, for which the Specific enzyme activity in data set [1] is 1.14 U/mg. Further, the “anti-PEG-IgG antibody titer, comparison between groups” value in data set [2] was “higher than that in the PL24 and PL54 groups”. In addition, in data set [2], the “anti-PEG-IgG, Positive rate” value is recorded as “Positive rate: 6/6”. Also, the figures for the “anti-PAL-IgG, x (average OD value of antibody detection by ELISA)” value in data set [3] (setting [4]) and in data set [3] (setting [6]) were “x=0.118” and “x=0.102”, respectively. In addition, the “anti-PAL-IgG, Positive rate” value in data set [3] (setting [5]) and in data set [3] (setting [7]) was “Positive rate: 1/6” throughout.

B1: PL24: polyethylene glycol conjugate of phenylalanine lyase mutant SEQ ID NO: 6, polyethylene glycol molecular weight 2K, average degree of modification 13.3 (conjugate)
chain: MKTLSQAQSKTSSQQFSFTGNSSANVIIGNQKLTINDVARVARNGTLVSLTNNTDILQGIQASCDYINNAVKSGEPIYGVTSGFGGMANVAISREQASELQTNLVWFLKTGAGNKLPLADVRAAMLLRANSHMRGASGIRLELIKRMEIFLNAGVTPYVYEFGSIGASGDLVPLSYITGSLIGLDPSFKVDFNGKEMDAPTALRQLNLSPLTLLPKEGLAMMNGTSVMTGIAANCVYDTKILTAIAMGVHALDIQALNGTNQSFHPFIHNSKPHPGQLWAADQMISLLANSQLVRDELDGKHDYRDHELIQDRYSLRCLPQYLGPIVDGISQIAKQIEIEINSVTDNPLIDVDNQASYHGGNFLGQYVGMGMDHLRYYIGLLAKHLDVQIALLASPEFSNGLPPSLLGNRERKVNMGLKGLQICGNSIMPLLTFYGNSIADRFPTHAEQFNQNINSQGYTSATLARKSVDIFQNYVAIALMFGVQAVDLRTYKKTGHYDARASLSPATERLYSAVRHVVGQKPTSDRPYIWNDNEQGLDEHIAKISADIAAGGVIVQAVQDILPSLH
modifications: PEG 2K conjugate, ~13.3 PEG per molecule
Take B1: the Specific enzyme activity in data set [1] is recorded as 0.96 U/mg. Moreover, the “anti-PEG-IgG, Positive rate” value in data set [2] is “Positive rate: 6/6”. Also, the entries for the “anti-PAL-IgG, x (average OD value of antibody detection by ELISA)” value in data set [3] (setting [4]) and in data set [3] (setting [6]) were “x=0.130” and “x=0.891”, respectively. For the same molecule, the “anti-PAL-IgG, Positive rate” value in data set [3] (setting [5]) was “Positive rate: 4/6”; in data set [3] (setting [7]), “Positive rate: 6/6”.
